Source: the DeepSol protein solubility set

Test: soluble on expression in E. coli; label from the status in PepcDB or PDB records

| Sequence | soluble on expression in E. coli |
| --- | --- |
| MGSDKIHHHHHHMRYRKLSDYLKERYGERVQRIVIHGGFSCPNRDGTKGKGGCIYCDATGSGFTTLMRLPIREQVMEMKKKYEKRGIKKFIAYFQSFSNTYAPVEMLRERYEEALVDDSIVQLSVSTRPDLVPERVLDLFEEFKKRVDVSVELGLQTANYRTLKKINRGHTLAEFVDAAVRVKKRGIELVVHVILNLPWDDMEDVVETAKILSALDVDGVKLHSLYVVEGTKLAEMYKKGEVKICSLEEYIDRAITFLEYLSPNVVIHRLVADPPRKGTIFGNWGKSKIEIINMIEEELERRDTYQGKKFDYLNR | not soluble |
| PLEDWPDDVLASLPRGISRHTVRFVNVDGHVFAIKEIGQKAAYHEYKMLRDLNRLGAPSVQPLAVITGRVDATGQPLTPALVTEHLSFSLPYRAVFSQTSVSRSMRPETATR | not soluble |
| MSSWAKVIYGASTELDAKVVELNVGGQFYTTTMGTLMKHPGSKFSEILSRSARHYKDAQGRFFIDRPGTYFGLLLDYLRTGQVPTEYVPEVYQEAKFYQIHLLVKILEDMPQIFGEQVARTQFLMGVPNYRENLEVLLHLARAEAVAMRSSKVVVCVVRTEEEDAKCVKPLHILEAKKTPVVKFGPWKAGPMTEDFVCCLEKDIRAKGYKVTSQRYYLSRDPYTCFWIFVFTWW | not soluble |
| SNAKSEIGKYAPFFSLPNAKGEKITRSSDAFKQKSLLINFWASWNDSISQKQSNSELREIYKKYKKNKYIGMLGISLDVDKQQWKDAIKRDTLDWEQVCDFGGLNSEVAKQYSIYKIPANILLSSDGKILAKNLRGEELKKKIENIVEEA | soluble |
| MSLKITDVQLTAIGMPRLTGFVNKHVIVQLFTDEGIEGIGEMSDFSHLPKYAVDIVDLERTLKQILVGKNPFDIAPINTELNGNFPEAMYYYEKGSFIRNGVDTALYDLCAKALGVSVSDLLGGRQREKIKVCFPIFRHRFMDEVEANLELVKKQYEKGFDVFRLYVGKNVDADEAFLAGVYNEFGGKVKVKSLDFSHLLDWKEALRITRRLAKYPIDLVESPALRNDFAGLHHFRMRCELPVSEHVWSLRQQSEMIKHDSVDIFNIAPVFIGGITQARKAADAAAVAEKSVLIGTTQELSIGTTAMAYFGSTLDHLNYISDPTGPELYVGDVVKNKVNYENGYLHLPERSTIGLGMELDWEKVEQYRVESLNWEDVSVHQLQDRTAQTRAEGHHHHHH | soluble |
| MGSDKIHHHHHHMDTIGRRLDMGKRIVLADPRGFCAGVDRAILTVRTILKSADTPRADGLPPVYVRRQIVHNKHVVEDLAAQGAVFVQELAEIPDAAAEAGIPIVFSAHGVSPAVKAEATARGMHVVDATCPLVSKVHREVLRFVKEGYEIIYIGHKGHDEAVGVVEESPEHVHLIEHASDVDSLDFQPDTKLVLLTQTTLSVDETAGTITALKARFPWLEMPPNSDICYATSNRQAAVKLVAEQADCVVIVGSANSSNSVRLMEVAQEGLSARYASKTAVGAAGRAHRVDDASELDPAWFEGVESVGISSGASVPDELVSGVVAALQELGYQDVSTIETIKENMHFVLPAELRK | not soluble |
| MYAFVRFLEDNVCYALPVSCVRDFSPRSRLDFDNQKVYAVYRGPEELGAGPESPPRAPRDWGALLLHKAQILALAEDKSDLENSVMQKKIKIPKLSLNHVEEDGEVKDYGEEDLQLRHIKRPEGRKPSEVAHKSIEAVVARLEKQNGLSLGHSTCPEEVFVEASPGTEDMDSLEDAVVPRALYEELLRNYQQQQEEMRHLQQELERTRRQLVQQAKKLKEYGALVSEMKELRDLNRRLQDVLLLRLGSGPAIDLEKVKSECLEPEPELRSTFSEEANTSSYYPAPAPVMDKYILDNGKVHLGSGIWVDEEKWHQLQVTQGDSKYTKNLAVMIWGTDVLKNRSVTGVATKKKKDAVPKPPLSPHKLSIVRECLYDRIAQETVDETEIAQRLSKVNKYICEKIMDINKSCKNEERREAKYNLQ | soluble |
| SLSAAEADLAGKSWAPVFANKNANGDAFLVALFEKFPDSANFFADFKGKSVADIKASPKLRDHSSTIFTRLNEFVNNAANAGKMSAMLSQFAKEHVGFGVGSAQFENVRSMFPGFVASVAAPPAGADAAWTKLFGLIIDALKAAGK | soluble |
